Results as given in patent US20260275312, “CRISPR NUCLEASE POLYPEPTIDES AND GENE EDITING SYSTEMS COMPRISING SUCH” (ARBOR BIOTECHNOLOGIES, INC., published 2026).

Tests used:
[1] = biological target: T1, Nuclease S D179R (synthetic construct, D179R); test: cell_activity; HEK293T; PAM AACC; settings: tags: N-term SV40 NLS, XTEN linker + C-term nucleoplasmin NLS
T1 chain: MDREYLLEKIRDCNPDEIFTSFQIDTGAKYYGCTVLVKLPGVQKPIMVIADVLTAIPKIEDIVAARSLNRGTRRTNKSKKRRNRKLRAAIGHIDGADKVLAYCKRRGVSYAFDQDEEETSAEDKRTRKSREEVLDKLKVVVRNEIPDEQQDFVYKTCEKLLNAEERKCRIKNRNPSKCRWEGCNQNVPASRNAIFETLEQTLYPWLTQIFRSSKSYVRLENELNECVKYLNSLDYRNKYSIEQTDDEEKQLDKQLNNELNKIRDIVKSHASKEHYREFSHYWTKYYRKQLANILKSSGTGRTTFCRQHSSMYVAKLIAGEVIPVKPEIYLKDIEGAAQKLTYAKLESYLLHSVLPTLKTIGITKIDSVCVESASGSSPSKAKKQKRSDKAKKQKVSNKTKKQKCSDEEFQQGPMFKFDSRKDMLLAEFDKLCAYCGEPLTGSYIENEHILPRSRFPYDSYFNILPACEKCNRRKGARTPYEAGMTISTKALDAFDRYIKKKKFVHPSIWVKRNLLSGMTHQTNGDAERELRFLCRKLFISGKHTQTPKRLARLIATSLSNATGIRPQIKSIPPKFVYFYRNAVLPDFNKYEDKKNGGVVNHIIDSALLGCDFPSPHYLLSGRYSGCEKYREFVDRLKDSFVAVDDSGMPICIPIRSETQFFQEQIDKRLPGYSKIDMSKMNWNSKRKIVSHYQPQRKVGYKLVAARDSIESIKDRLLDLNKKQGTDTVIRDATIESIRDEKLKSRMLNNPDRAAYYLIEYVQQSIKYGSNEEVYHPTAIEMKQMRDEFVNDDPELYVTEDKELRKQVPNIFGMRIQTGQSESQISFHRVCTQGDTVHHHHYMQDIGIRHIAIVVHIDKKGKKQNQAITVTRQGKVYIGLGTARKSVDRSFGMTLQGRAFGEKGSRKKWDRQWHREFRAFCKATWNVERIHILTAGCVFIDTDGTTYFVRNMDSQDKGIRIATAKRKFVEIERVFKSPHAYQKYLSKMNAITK
Method: (§1) HEK293T cells were transfected with plasmids expressing the Nuclease S polypeptides and the gRNAs provided herein following the methods provided in Example 1 above. Gene editing efficiencies were determined by NGS following the methods also provided in Example 1. The NGS results were analyzed also following the methods provided in Example 1 above.
(§2) For each target, indel ratios, referring to the percentage of NGS reads comprising indels, were calculated for the reference and for each variant. The indel ratios used for fold change calculations were the average of two technical replicates. To then calculate fold change in indel ratios at a particular target, the indel ratio for each variant was divided by the indel ratio for the reference. […] Numbering is relative to the reference nuclease of SEQ ID NO: 49 (i.e., without an NLS). […] The average fold change in indel ratio for the D844R variant at all targets was 5.27 times that of the indel ratio for the reference at all targets.

[2] = biological target: T2, Nuclease S D844R (synthetic construct, D844R); test: cell_activity; HEK293T; PAM AACC; settings: tags: N-term SV40 NLS, XTEN linker + C-term nucleoplasmin NLS
T2 chain: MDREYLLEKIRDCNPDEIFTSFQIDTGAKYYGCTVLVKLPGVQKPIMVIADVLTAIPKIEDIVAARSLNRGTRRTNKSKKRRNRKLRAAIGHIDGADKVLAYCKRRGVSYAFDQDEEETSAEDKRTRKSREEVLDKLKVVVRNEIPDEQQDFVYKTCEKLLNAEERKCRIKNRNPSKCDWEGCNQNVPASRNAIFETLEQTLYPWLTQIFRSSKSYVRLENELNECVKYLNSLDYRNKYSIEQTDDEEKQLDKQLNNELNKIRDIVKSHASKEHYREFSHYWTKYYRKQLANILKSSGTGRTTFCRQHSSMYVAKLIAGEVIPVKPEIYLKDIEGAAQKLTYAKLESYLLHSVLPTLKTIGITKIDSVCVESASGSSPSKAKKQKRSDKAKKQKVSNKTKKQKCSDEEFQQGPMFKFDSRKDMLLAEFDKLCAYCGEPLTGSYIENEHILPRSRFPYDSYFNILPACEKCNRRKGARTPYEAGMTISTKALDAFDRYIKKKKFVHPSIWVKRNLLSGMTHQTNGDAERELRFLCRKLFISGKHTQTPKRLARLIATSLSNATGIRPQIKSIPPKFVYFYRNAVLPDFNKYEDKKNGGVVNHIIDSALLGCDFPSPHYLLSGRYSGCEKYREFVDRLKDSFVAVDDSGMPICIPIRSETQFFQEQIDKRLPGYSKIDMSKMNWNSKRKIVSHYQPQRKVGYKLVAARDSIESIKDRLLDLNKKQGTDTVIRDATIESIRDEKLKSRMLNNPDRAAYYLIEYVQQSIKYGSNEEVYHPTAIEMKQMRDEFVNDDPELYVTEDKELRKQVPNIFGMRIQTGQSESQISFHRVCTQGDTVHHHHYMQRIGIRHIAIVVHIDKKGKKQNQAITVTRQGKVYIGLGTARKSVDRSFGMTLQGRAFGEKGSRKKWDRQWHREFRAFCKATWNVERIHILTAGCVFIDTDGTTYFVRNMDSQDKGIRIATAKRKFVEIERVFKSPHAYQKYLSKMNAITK
Method: as §1, §2

B1: S AAVS1-T7 RNA guide ; AAVS1-T7 target (S) (ssRNA ; dsDNA)
RNA: GGCUAUAAUCCAUGCUGACCGUUGUAUUCGGAUGGGAGUAAAAGGUUGAGUACACCUGGAAACAAAACGACAUAAAGGUGUUCUCCCAUCUGUGUACAAAGAGCAGAUAUAUGAGUUGAUAAGUAAUAUGUUGCACGUAUGGACUUUGACAGUCUGUACCUCUGCGUGAAAGACAUAUUGCGUUAUUCAUAUAUCUGUGAGUCUGUUCUAAAUUUAAAGGUUUAGGGAA
DNA 1: GGCTATAATCCATGCTGACC
DNA 2: GGTCAGCATGGATTATAGCC
How did the “fold change in indel ratio vs reference” value [1] turn out when B1 was run?
Its value is 6.38 fold indel vs reference.

What about the “fold change in indel ratio vs reference” value [2] of the same binder?
Its value is 6.37 fold indel vs reference.
